The text below walks through data of patent US20230287145A1 (Hoffmann-La Roche, published 2023).

In assay [1] the target is T1, Human CD3ε stalk-Fc(knob)-Avi/CD3δ stalk-Fc(hole) (human).
T1 construct: Heterodimeric Fc fusion; also called human CD3ε/δ; Human CD3 epsilon stalk-Fc(knob)-Avi
Kind of assay: SPR, Biacore T200, 25 °C; monovalent IgG captured by anti-PG antibody on C1 chip, CD3ε/δ-Fc as analyte; triplicates; footnote: values may not be fully reliable, bad fit quality. Here is the method:
(§1) Kinetic constants were derived using the Biacore T200 Evaluation Software (GE Healthcare Life Sciences), to fit rate equations for 1:1 Langmuir binding by numerical integration. The half-life (t_{1/2}) of the interaction was calculated using the formula t_{1/2}=ln 2/koff.
(§2) To analyze the interaction to CD3, IgG molecules were captured for 240 s at 50 nM with a flow rate of 5 μl/min. Human and cynomolgus CD3ε stalk-Fc(knob)-Avi/CD3δ-stalk-Fc(hole) were passed at a concentration of 0.061-250 nM with a flow rate of 30 μl/min through the flow cells for 300 s. The dissociation was monitored for 800 s.
On the technique in general: Surface plasmon resonance follows binding to a sensor surface in real time, without labels.

Assay [2] addresses T2, Cynomolgus CD3ε stalk-Fc(knob)-Avi/CD3δ stalk-Fc(hole) (cynomolgus).
T2 construct: Heterodimeric Fc fusion; also called cynomolgus CD3ε/δ
Described as above. Here is the method:
as §1, §2

In assay [3] the target is T1, Human CD3ε stalk-Fc(knob)-Avi/CD3δ …. Kind of assay: SPR, biotinylated human CD3ε/δ on SA chip, monovalent IgG; response normalised to anti-huIgG capture and referenced to the unstressed sample; after 2 weeks at pH 6.0/40 °C. Here is the method: (§3) All SPR experiments were performed on a Biacore T200 instrument (GE Healthcare) at 25° C. with HBS-P+ (10 mM HEPES, 150 mM NaCl pH 7.4, 0.05% Surfactant P20) as running and dilution buffer. Biotinylated human CD3ε/δ (see Example 3, SEQ ID NOs 41 and 42) as well as biotinylated anti-huIgG (Capture Select, Thermo Scientific, #7103262100) were immobilized on a Series S Sensor Chip SA (GE Healthcare, #29104992), resulting in surface densities of at least 1000 resonance units (RU). Anti-CD3 antibodies with a concentration of 2 μg/ml were injected for 30 s at a flow rate of 5 μl/min, and dissociation was monitored for 120 s. The surface was regenerated by injecting 10 mM glycine pH 1.5 for 60 s. Bulk refractive index differences were corrected by subtracting blank injections and by subtracting the response obtained from a blank control flow cell. For evaluation, the binding response 5 seconds after injection end was taken. To normalize the binding signal, the CD3 binding was divided by the anti-huIgG response (the signal (RU) obtained upon capture of the CD3 antibody on the immobilized anti-huIgG antibody). The relative binding activity was calculated by referencing each temperature stressed sample to the corresponding, non-stressed sample.

Assay [4] shares this target. Kind of assay: SPR, biotinylated human CD3ε/δ on SA chip, monovalent IgG; response normalised to anti-huIgG capture and referenced to the unstressed sample; after 2 weeks at pH 7.4/37 °C. Here is the method:
as §3

Assay [5] shares this target. The assay is described as follows: SPR, Biacore T200, 25 °C; monovalent IgG captured by anti-PG antibody on C1 chip, CD3ε/δ-Fc as analyte; 1:1 Langmuir fit; triplicates; footnote: values may not be fully reliable, bad fit quality. Here is the method: as §1, §2
For assay [6], the target named is T2, Cynomolgus CD3ε stalk-Fc(knob)-Avi/CD3δ …. Described as above. Here is the method: as §1, §2

T2 sequence (chain, as listed by the source mutant limits assumed, chain 1 of 2): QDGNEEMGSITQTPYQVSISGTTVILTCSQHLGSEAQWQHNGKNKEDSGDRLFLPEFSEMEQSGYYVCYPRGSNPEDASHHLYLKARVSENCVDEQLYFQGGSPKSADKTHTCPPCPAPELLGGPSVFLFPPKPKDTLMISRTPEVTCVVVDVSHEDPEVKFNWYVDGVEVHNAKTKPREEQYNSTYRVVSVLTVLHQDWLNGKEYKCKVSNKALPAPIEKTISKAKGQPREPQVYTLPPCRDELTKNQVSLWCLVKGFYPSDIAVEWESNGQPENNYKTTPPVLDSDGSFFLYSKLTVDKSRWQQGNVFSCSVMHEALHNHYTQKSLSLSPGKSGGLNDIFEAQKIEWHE
T2 sequence (chain, as listed by the source mutant limits assumed, chain 2 of 2): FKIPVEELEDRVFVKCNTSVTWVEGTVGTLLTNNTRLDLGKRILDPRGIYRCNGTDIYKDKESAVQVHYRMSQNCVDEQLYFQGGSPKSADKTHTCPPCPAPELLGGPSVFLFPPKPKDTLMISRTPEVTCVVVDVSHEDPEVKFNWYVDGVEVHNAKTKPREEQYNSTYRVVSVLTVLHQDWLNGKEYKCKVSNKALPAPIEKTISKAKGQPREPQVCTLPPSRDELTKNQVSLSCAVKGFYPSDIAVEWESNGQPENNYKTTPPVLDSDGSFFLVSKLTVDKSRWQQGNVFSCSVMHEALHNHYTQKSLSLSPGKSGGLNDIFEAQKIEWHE

B1: Anti-CD3 antibody clone P004.042 in monovalent human IgG1 format (antibody, V domains shown)
VH: EVQLLESGGGLVQPGGSLRLSCAASGFQFDNYAMNWVRQAPGKGLEWVSRIRTKYNEYATYYADSVKGRFTISRDDSKNTLYLQMNSLRAEDTAVYYCVRASNFPQSYVSYFGYWGQGTLVTVSS
VL: QAVVTQEPSLTVSPGGTVTLTCGSSTGAVTTSNYANWVQEKPGQAFRGLIGGTNKRAPGTPARFSGSLLGGKAALTLSGAQPEDEAEYYCALWYSNLWVFGGGTKLTVL
notes: Monovalent human IgG1 with crossed VH and VL domains; knob-into-hole; P329G L234A L235A; also called P004.042 (monovalent IgG)
B1: the t1/2 was 1.36 min in assay [1] and 1.43 min in assay [2]. The “binding activity [%]” value in assay [3] was 101%; in assay [4], 98%. Moreover, the equilibrium dissociation constant (Kd) in assay [5] was determined as 1.36 nM; in assay [6], 0.439 nM. Also, the koff worked out at 0.00852 s⁻¹ in assay [5] and 0.00809 s⁻¹ in assay [6]. For the same molecule, the values for the kon in assay [5] and in assay [6] were 6.28e+06 M⁻¹ s⁻¹ and 1.85e+07 M⁻¹ s⁻¹, respectively.

Broadly, the Kd is the equilibrium constant for the complex coming apart. Read a high Kd as lower affinity. For orientation: koff means the first-order rate constant of dissociation. Read a low koff as slow dissociation. Usually kon stands for the rate constant with which the complex forms.
